PMC6593147, “COP1 regulates the stability of CAM7 to promote photomorphogenic growth” (Plant Direct, 2019)

B1: COP1‐His (natural protein)
chain: MEEISTDPVVPAVKPDPRTSSVGEGANRHENDDGGSGGSEIGAPDLDKDLLCPICMQIIKDAFLTACGHSFCYMCIITHLRNKSDCPCCSQHLTNNQLYPNFLLDKLLKKTSARHVSKTASPLDQFREALQRGCDVSIKEVDNLLTLLAERKRKMEQEEAERNMQILLDFLHCLRKQKVDELNEVQTDLQYIKEDINAVERHRIDLYRARDRYSVKLRMLGDDPSTRNAWPHEKNQIGFNSNSLSIRGGNFVGNYQNKKVEGKAQGSSHGLPKKDALSGSDSQSLNQSTVSMARKKRIHAQFNDLQECYLQKRRQLADQPNSKQENDKSVVRREGYSNGLADFQSVLTTFTRYSRLRVIAEIRHGDIFHSANIVSSIEFDRDDELFATAGVSRCIKVFDFSSVVNEPADMQCPIVEMSTRSKLSCLSWNKHEKNHIASSDYEGIVTVWDVTTRQSLMEYEEHEKRAWSVDFSRTEPSMLVSGSDDCKVKVWCTRQEASVINIDMKANICCVKYNPGSSNYIAVGSADHHIHYYDLRNISQPLHVFSGHKKAVSYVKFLSNNELASASTDSTLRLWDVKDNLPVRTFRGHTNEKNFVGLTVNSEYLACGSETNEVYVYHKEITRPVTSHRFGSPDMDDAEEEAGSYFISAVCWKSDSPTMLTANSQGTIKVLVLAA
notes: COP1 (CONSTITUTIVELY PHOTOMORPHOGENIC 1) E3 ubiquitin ligase, Arabidopsis thaliana, full-length CDS cloned into pET-20b(+); also called COP1‐6His; source: E. coli BL21 (DE3), purified by Ni‐NTA Agarose beads; not shown: His6, C-terminal, kept

Assays:
[1] = biological target: T1, GST‐CAM7 (Arabidopsis thaliana, UniProt P59220 1-149); assay: pull-down; 2 μg COP1‐His bound to Ni‐NTA beads; GST fusions or GST added in an equimolar ratio, overnight at 4°C; 50 mM Tris‐Cl pH 7.5, 100 mM NaCl, 0.2% glycerol, 0.1% triton, 1 mM EDTA, 0.1% NP‐40; anti‐GST immunoblot; details: both partners purified
T1 construct: Vector pGEX-4T2; also called Calmodulin7; CAM7/ZBF3; source: E. coli BL21 (DE3), purified by Glutathione sepharose 4B beads

[2] = biological target: B1; assay: as above; details: both partners purified

B1
binding result [1]: binds

B2: GST‐HY5 (natural protein, Arabidopsis thaliana, UniProt O24646 1-168, looked up)
chain: MQEQATSSLAASSLPSSSERSSSSAPHLEIKEGIESDEEIRRVPEFGGEAVGKETSGRESGSATGQERTQATVGESQRKRGRTPAEKENKRLKRLLRNRVSAQQARERKKAYLSELENRVKDLENKNSELEERLSTLQNENQMLRHILKNTTGNKRGGGGGSNADASL
notes: Positive control of the pull-down; also called ELONGATED HYPOCOTYL5; source: E. coli BL21 (DE3), purified by Glutathione sepharose 4B beads
binding result [2]: binds
